Test results as given in publication PMC4237329, “Early Chordate Origin of the Vertebrate Integrin αI Domains” (PLoS ONE, 2014).
Like-named read-outs stand apart in the source and are kept apart here.

B1: Pma_f2 αI domain (sea lamprey integrin α subunit fragment Pma_f2), GST-fusion protein (domain or fragment, sea lamprey (Petromyzon marinus))
chain: ADFQVTSTLTPAAQRCGLFMDIVIVLDGSNSIYPWQEVQNFVINIVKKFHIGPGQSRNGGGSTRFGVRTIHWHLGIARWACEGVQDVENIYSRPFVRTASALCQSLQVVRSEAFSPLFGAREGASKVMIVVTDGESHDSEDLTEAIAACERDNITRYAIAVLGYYKRKNIDPSNFISELKAISSEPEEKHFINVADEAALNDIVGTLGERIFSLEGTV
notes: also called Pma αI domains; source: E. coli BL21 tuner (gene synthesized, in pGEX-2T), recombinant GST-fusion protein, "sufficiently pure"

Molecular target: T1, rat tail collagen I (rat, UniProt P02454 152-1207; P02466 86-1125)
T1 construct: collagen α1(I) chain, rat; collagen α2(I) chain, rat; also called rat collagen I; source: bought: Sigma Aldrich (rat tail collagen I)
T1 sequence (P02454 152-1207, chain 1 of 2): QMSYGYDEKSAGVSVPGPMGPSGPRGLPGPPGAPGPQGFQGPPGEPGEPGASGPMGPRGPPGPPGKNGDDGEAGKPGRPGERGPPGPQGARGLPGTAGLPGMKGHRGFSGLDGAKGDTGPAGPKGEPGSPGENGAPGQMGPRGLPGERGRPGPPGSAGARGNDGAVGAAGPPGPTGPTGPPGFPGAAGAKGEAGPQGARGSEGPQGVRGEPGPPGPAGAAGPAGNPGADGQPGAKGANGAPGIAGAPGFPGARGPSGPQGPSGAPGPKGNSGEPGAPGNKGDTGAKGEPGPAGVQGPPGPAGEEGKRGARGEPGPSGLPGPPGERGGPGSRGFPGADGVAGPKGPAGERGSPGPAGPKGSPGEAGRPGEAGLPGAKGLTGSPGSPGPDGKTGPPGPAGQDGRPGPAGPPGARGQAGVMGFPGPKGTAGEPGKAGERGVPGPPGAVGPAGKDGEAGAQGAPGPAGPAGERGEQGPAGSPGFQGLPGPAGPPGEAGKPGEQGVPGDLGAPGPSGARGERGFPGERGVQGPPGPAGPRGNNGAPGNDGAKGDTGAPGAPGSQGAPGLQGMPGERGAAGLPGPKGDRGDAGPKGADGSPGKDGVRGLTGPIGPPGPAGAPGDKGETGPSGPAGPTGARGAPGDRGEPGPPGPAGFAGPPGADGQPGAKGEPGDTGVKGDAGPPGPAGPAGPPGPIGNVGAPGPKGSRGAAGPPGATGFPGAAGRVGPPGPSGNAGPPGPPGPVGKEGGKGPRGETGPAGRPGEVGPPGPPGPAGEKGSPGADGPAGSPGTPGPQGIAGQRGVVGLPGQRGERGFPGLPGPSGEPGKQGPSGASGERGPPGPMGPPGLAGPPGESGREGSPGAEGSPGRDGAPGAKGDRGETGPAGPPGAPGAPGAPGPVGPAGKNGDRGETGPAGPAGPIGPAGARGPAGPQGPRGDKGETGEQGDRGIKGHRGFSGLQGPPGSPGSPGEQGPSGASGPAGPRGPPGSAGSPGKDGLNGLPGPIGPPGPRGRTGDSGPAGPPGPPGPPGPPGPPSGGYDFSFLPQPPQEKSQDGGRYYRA
T1 sequence (P02466 86-1125, chain 2 of 2): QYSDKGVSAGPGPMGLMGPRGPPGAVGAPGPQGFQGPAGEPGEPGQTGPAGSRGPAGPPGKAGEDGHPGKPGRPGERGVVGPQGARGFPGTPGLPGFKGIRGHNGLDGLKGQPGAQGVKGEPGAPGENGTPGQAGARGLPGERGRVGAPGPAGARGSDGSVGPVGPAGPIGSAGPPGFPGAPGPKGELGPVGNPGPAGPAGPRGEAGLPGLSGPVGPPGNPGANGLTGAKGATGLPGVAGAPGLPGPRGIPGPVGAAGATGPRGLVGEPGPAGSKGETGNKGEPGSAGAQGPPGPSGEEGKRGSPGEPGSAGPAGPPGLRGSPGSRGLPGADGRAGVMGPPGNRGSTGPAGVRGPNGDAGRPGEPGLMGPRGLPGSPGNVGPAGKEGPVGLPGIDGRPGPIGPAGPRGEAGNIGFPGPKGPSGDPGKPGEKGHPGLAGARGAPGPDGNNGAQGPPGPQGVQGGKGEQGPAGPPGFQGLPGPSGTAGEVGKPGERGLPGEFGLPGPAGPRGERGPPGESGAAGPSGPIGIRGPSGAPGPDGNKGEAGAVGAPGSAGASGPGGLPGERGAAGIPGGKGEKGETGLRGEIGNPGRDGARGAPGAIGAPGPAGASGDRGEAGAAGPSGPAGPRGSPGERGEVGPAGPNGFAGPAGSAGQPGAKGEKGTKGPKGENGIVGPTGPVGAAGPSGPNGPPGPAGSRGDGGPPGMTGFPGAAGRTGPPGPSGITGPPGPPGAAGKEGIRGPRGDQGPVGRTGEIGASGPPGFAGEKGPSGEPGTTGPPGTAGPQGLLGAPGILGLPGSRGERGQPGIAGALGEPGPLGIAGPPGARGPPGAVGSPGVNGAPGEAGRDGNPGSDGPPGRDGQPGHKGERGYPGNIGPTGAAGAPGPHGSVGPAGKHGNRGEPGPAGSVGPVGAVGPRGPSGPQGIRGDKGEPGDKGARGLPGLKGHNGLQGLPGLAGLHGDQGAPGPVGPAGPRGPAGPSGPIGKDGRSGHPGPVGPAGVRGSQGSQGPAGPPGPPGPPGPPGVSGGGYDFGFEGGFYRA
Assay: solid-phase binding assay (Europium-labelled anti-GST antibody, time-resolved fluorescence); 96-well plates coated with rat collagen I; GST-αI domain at various concentrations, one hour at RT, PBS + 2 mM MgCl2; apparent affinity constants from a hyperbolic fit (Hill's equation with h = 1)

Row | Molecule | Kd [nM] | Kd (both partners purified) [nM]
1 | Pma_f1 αI domain (sea lamprey integrin α subunit fragment Pma_f1), GST-fusion protein (domain or fragment) | 200 | –
2 | Pma_f3 αI domain (sea lamprey integrin α subunit fragment Pma_f3), GST-fusion protein (domain or fragment) | 195 | –
3 | B1 | – | 375 ± 120
